Here are results for one molecule from patent publication US20190309044A1, “POLYPEPTIDES AND USES THEREOF AS A DRUG FOR TREATMENT OF AUTOIMMUNE DISORDERS” (Compugen Ltd., priority 2017, published 2019).

What all share (type): in vivo, mouse
Assay [1] deals with SJL/J mice. Briefly: Adoptive transfer R-EAE, clinical score. The method, then: Female SJL/J mice were primed with 50 μg of PLP139-151/CFA according to the standard laboratory protocol on day 0. On day 8 post disease induction, the inguinal lymph nodes were collected and the total lymph node cells were re-activated in culture in the presence of PLP139-151 for 3 days. At the end of culture, cells were collected and transferred into naive recipient SJL/J mice.
a. Mice were shaved (about a 1 in.×1 in, square on the back between the hind flanks) and injected with CFA/PLP139-151 emulsion at 100 μl per mouse s.c., divided between three spots on the back and flanks. Peptide and final dose given per mouse: 50 μg of PLP139-151 peptide on day 0.
b. On day 8 post priming with PLP139-151/CFA, the draining inguinal lymph nodes were collected, and single cell suspensions were prepared. Total lymph node cells were cultured at a density of 8×10^6 cells per ml in the HL-1 medium plus PLP139-151 peptide (20 μg/ml) in T75 flasks.
c. After 3 days of culture, the PLP139-151 reactivated cells were collected and counted using an hemacytometer. The number of total viable cells and the number of blast cells was determined. […]
f. Mice were scored on the indicated days, on a 0-5 disease score scale per standard laboratory protocol: 0, no abnormality; 1, limp tail; 2, limp tail and hind limb weakness; 3, hind limb paralysis; 4, hind limb paralysis and forelimb weakness; and 5, moribund. […]

For assay [2], the system named is male DBA/1OlaHsd mice. Briefly: CIA, early stage treatment from day 18. The following applies: 3.3 mg/kg. An excerpt: The aim of this study was to estimate the effect of C1ORF32-P8-V1-ECD-mFc (SEQ ID NO:42) on disease development in a type II Collagen induced arthritis (CIA) mouse model upon administration at early stage of disease; i.e., when specific and predictive markers for RA development are present in the serum, but before onset of clinical symptoms.
In the CIA model, arthritis is induced by immunization with type II collagen in CFA on day 1 which is followed by boosting with type II collagen in CFA on day 21. Antibodies against both CII and cyclic citrullinated peptide (CCPs) appear early after immunization, before joint swelling is observed.
To evaluate the effect of early stage treatment with C1ORF32-P8-V1-ECD-mFc (SEQ ID NO:42) on disease development treatment started on day 18 and was given IP injection, Q2D to mice from day 18 until day 32.
Male DBA/101aHsd mice weighing 16-25 grams (mean 22 g) on day 18 of the study were obtained from Harlan, Inc., Indianapolis, Ind. Mice (10/group) were anaesthetized with Isoflurane, shaved at the base of the tail, and injected intradermally with 150 μl of Freund's Complete Adjuvant (Sigma) containing bovine type II collagen (Elastin Products, Owensville, Mo.) (2 mg/ml) at the base of the tail on day 0 and again on day 21. On study day 18, mice were randomized by body weight into treatment groups. […]

Assay [3] has as its system NOD mice. Briefly: Type 1 diabetes incidence in NOD mice. The following applies: Study III; p<0.001. The method, then:
The effect of C1ORF32 ECD-Fc treatment on modulation of disease incidence was tested in NOD mice, which spontaneously develop a T1D disease. In NOD mice, autoreactive CD4+ can be observed within the β-islets as early as 2 weeks of age (Yang et al., Immunity. 1996 February; 4(2):189-94), and by 10 weeks of age, when the treatment with C1ORF32 ECD-Fc (SEQ ID NO: 42) began in the present experiments, NOD mice develop peri-insulitis and β-cell loss (Jimeno et al., Immunology and Cell Biology. (2010) 88, 734-745).
Materials: C1ORF ECD-Fc (SEQ ID NO:42) was used in these studies, as described below. Control Ig was mouse IgG2a from BioXcell (Cat# BE0085). NOD mice were purchased from Jackson labs, and blood glucose was measured via sampling a small drop of blood from the tail vein.
Methods: Six week old NOD mice were purchased from Jackson labs. […] Blood glucose levels were monitored weekly from 8 weeks of age until the mice reached […] of age as detailed below. Mice were considered diabetic upon having two consecutive blood glucose readings of >250 mg/dL. Diabetic mice were sacrificed on the day of the second high glucose level reading. Blood glucose levels were obtained from the tail vein, and the level of blood glucose measured via use of a OneTouch. […]

Entries after “also recorded” stand apart in the source; their conditions may differ.

B1: C1ORF32 ECD-Fc (SEQ ID NO:42): human-mouse fusion protein: human C1ORF32 ECD fused to mouse immunoglobulin Fc (SEQ ID NO:42) (protein)
chain: LQVTVPDKKKVAMLFQPTVLRCHFSTSSHQPAVVQWKFKSYCQDRMGESLGMSSTRAQSLSKRNLEWDPYLDCLDSRRTVRVVASKQGSTVTLGDFYRGREITIVHDADLQIGKLMWGDSGLYYCIITTPDDLEGKNEDSVELLVLGRTGLLADLLPSFAVEIMGSENLYFQGSGEPRGPTIKPCPPCKCPAPNLLGGPSVFIFPPKIKDVLMISLSPIVTCVVVDVSEDDPDVQISWFVNNVEVHTAQTQTHREDYNSTLRVVSALPIQHQDWMSGKEFKCKVNNKDLPAPIERTISKPKGSVRAPQVYVLPPPEEEMTKKQVTLTCMVTDFMPEDIYVEWTNNGKTELNYKNTEPVLDSDGSYFMYSKLRVEKKNWVERNSYSCSVVHEGLHNHHTTKSFSRTPGK
modifications: Fusion protein human C1ORF32-ECD fused to mouse IgG2a Fc
For B1, the “disease induction / development” value in assay [1] (100 ug/dose i.p. 3x/wk 2 wks from time of cell transfer) is listed as “complete abolishment of disease induction; also recorded: abolished disease development”. In addition, the “clinical signs of the disease” value in assay [1] (100 ug/mouse i.p. 3x/wk 2 wks from onset of disease remission) is given as “robust inhibition of clinical signs”. In assay [2], the “effect of lower dose” value is given as “No effect”. For the same molecule, the “incidence of T1D in comparison to Control Ig and PBS” value in assay [3] was “significantly decreased incidence of T1D”.
